Columns and labels:
Assay in all cases: cell-based or functional assay
[1] = target: West Nile virus (WNV) reporter virus particles (RVPs) (West Nile virus)
[2] = target: DENV1 reporter virus particles (RVPs) (Dengue virus serotype 1)
[3] = target: Zika virus (ZIKV) reporter virus particles (RVPs) (Zika virus)
[4] = target: DENV4 reporter virus particles (RVPs) (Dengue virus serotype 4)
[5] = target: DENV3 reporter virus particles (RVPs) (Dengue virus serotype 3)

**Q.** With WNV-specific mAb CR4354 (antibody) as the substance, how does the IC50 (neutralization) [1] read?
**A.** 0.007 mg/L

**Q.** How did the percent neutralization [2] turn out when monoclonal antibody E16 was run?
**A.** -303%

**Q.** And the percent neutralization [3]?
**A.** -38%

**Q.** And the percent neutralization [1]?
**A.** 99%

**Q.** And the percent neutralization [4]?
**A.** -177%

**Q.** And the percent neutralization [5]?
**A.** -415%

**Q.** With monoclonal antibody C10 as the substance, how does the IC50 (neutralization) [2] read?
**A.** 0.352 mg/L

**Q.** And the percent neutralization [2]?
**A.** 52%

**Q.** And the IC50 (neutralization) [3]?
**A.** 0.038 mg/L

**Q.** And the percent neutralization [3]?
**A.** 99%

**Q.** And the percent neutralization [1]?
**A.** -195%

**Q.** And the IC50 (neutralization) [4]?
**A.** 0.038 mg/L

**Q.** And the percent neutralization [4]?
**A.** 98%

**Q.** What about the IC50 (neutralization) [5] of the same substance?
**A.** 0.753 mg/L

**Q.** What about the percent neutralization [5] of the same substance?
**A.** -95%

— patent publication US20210188948A1
